Key:
Human PD-L1 [1] = target: T1, Human PD-L1 (human, UniProt Q9NZQ7 19-127, limits assumed); experiment: ELISA on plate-coated human PD-L1, corrected absorbance 450-570 nm
T1 construct: also called huPD-L1; hPD-L1
Experimental: For ELISA binding assays, 384 well or 96 well plates were coated with […] and incubated overnight at 4° C., protected from light. Plates were washed twice with PBS/0.05% Tween 20 before blocking with block buffer (3% milk protein in PBS) for 1 hour at room temperature. Next, test agent or controls were loaded and incubated for 1 hour at room temperature. Plates were then washed three times with PBS/0.05% Tween 20. Finally, HRP conjugated secondary antibody, diluted 1/5,000 in block buffer, was added and incubated for 1 hour at room temperature. Plates were again washed three times with PBS/0.05% Tween before addition of TMB substrate and incubation for 6 minutes at room temperature. Subsequently, the reaction was stopped with stop solution. Absorbance was read at 450 nm and 570 nm. Absorbance at 570 nm was subtracted from absorbance at 450 nm for each plate.

Human PD-L1 [2] = target: T1, Human PD-L1; experiment: ELISA on plate-coated human PD-L1, sample pre-incubated with MMP12 for 15 min
Human PD-L1 [3] = target: T1, Human PD-L1; experiment: ELISA on plate-coated human PD-L1, sample pre-incubated with MMP12 for 60 min
Human PD-L1 [4] = target: T1, Human PD-L1; experiment: ELISA on plate-coated human PD-L1, sample pre-incubated with MMP12 for 5 min
Human PD-L1 [5] = target: T1, Human PD-L1; experiment: ELISA on plate-coated human PD-L1, sample pre-incubated with MMP12 for 30 min
Human PD-L1 [6] = target: T1, Human PD-L1; experiment: ELISA on plate-coated human PD-L1, sample pre-incubated with MMP12 for 60 min; remark: listed apart in the source
Human PD-L1 [7] = target: T1, Human PD-L1; experiment: ELISA on plate-coated human PD-L1, sample pre-incubated with MMP12 for 15 min; remark: listed apart in the source
Human PD-L1 [8] = target: T1, Human PD-L1; experiment: ELISA on plate-coated human PD-L1, sample pre-incubated with MMP12 for 30 min; remark: listed apart in the source
Human PD-L1 [9] = target: T1, Human PD-L1; experiment: ELISA on plate-coated human PD-L1, sample pre-incubated with MMP12 for 5 min; remark: listed apart in the source

B1: LB218 (intact) (bispecific antibody, human IgG1, kappa, lambda)
heavy: not shown
light: not shown
chain: SCPPCPAPEAAGAPSVFLFPPKPKDTLMISRTPEVTCVVVDVSHEDPEVKFNWYVDGVEVHNAKTKPREEQYNSTYRVVSVLTVLHQDWLNGKEYKCKVSNKALPAPIEKTISKAKGQPREPQVCTLPPSRDELTKNQVSLSCAVKGFYPSDIAVEWESNGQPENNYKTTPPVLDSDGSFFLVSKLTVDKSRWQQGNVFSCSVMHEALHNHYTQKSLSLSPGK
notes: Asymmetric LockBody, uncleaved; also called intact LB218
- EC50 (read off the curve) (Human PD-L1 [1]): ~0.2 nM

B2: LB218 after incubation with MMP12 (bispecific antibody)
heavy: not shown
light: not shown
chain: B1 chain
notes: Digest of LB218 with human MMP12; a mixture of products; also called MMP12 treated LB218; digested LB218
- EC50 (read off the curve) (Human PD-L1 [2]): ~0.2 nM
- EC50 (read off the curve) (Human PD-L1 [3]): ~0.7 nM
- EC50 (read off the curve) (Human PD-L1 [4]): ~0.1 nM
- EC50 (read off the curve) (Human PD-L1 [5]): ~0.5 nM

B3: LB213 after incubation with MMP12 (bispecific antibody)
heavy: not shown
light: not shown
chain: B1 chain
notes: Digest of LB213 with human MMP12; a mixture of products; also called MMP12 treated LB213; digested LB213
- EC50 (read off the curve) (Human PD-L1 [6]): ~0.5 nM
- EC50 (read off the curve) (Human PD-L1 [7]): ~0.2 nM
- EC50 (read off the curve) (Human PD-L1 [8]): ~0.3 nM
- EC50 (read off the curve) (Human PD-L1 [9]): ~0.2 nM

B4: LB213 (intact) (bispecific antibody, human IgG1, kappa, lambda)
heavy: not shown
light: not shown
chain: B1 chain
notes: Asymmetric LockBody, uncleaved; also called intact LB213
- EC50 (read off the curve) (Human PD-L1 [1]): ~0.2 nM
